# Literature values, collected in article PMC12874384.
# Assays:
# [1] = target: Glu165 (UniProt position 165, VVLAYEPVWAI); assay: kinetics (competitive inhibition, pH dependence of Ki); conditions: enzyme•PGA trianion complex (closed, inhibitor-bound)
# [2] = system: Glu165; assay: as above; conditions: enzyme•PGA trianion complex (closed, inhibitor-bound)
# [3] = target: Glu165 (UniProt position 165, VVVAYEPVWAI); assay: as above; conditions: enzyme•PGA trianion complex (closed, inhibitor-bound)
# [4] = target: Asp260 (UniProt position 260, SCGVADLITTC); assay: kinetics (pH-rate profile); conditions: kcat/Km profile for reaction of DHAP dianion in the presence of NADH
# [5] = target: T1, Lys204 (UniProt position 204, ICGALKNVVAV); assay: kinetics (pH-rate profile); conditions: kcat/Km profile for reaction of DHAP dianion in the presence of NADH
# [6] = target: T1, Lys204; assay: kinetics (pH-rate profile of chemical rescue); conditions: K120A variant with EtNH3+ activator, DHAP and NADH
substance,measurement,setting,value
"Triosephosphate isomerase, chicken (cTIM) (Gallus gallus)",pKa,[1],≈ 11
TbbTIM P166A/I170A double variant (P168A/I172A in TbbTIM numbering) (Trypanosoma brucei brucei; P166A;I170A),pKa,[2],7.8
yTIM Y208F variant (Saccharomyces cerevisiae; Y208F),pKa,[3],6.3
hlGPDH K120A variant (Homo sapiens; K120A),pKa,[4],5.0
same,pKa,[5],7.6
same,pKa,[6],7.7
"cTIM loop 7 replacement variant (L7RM, 208-TGAG-211) (Gallus gallus; Y208T;G210A;S211G)",pKa,[1],6.7
TbbTIM P166A variant (P168A in TbbTIM numbering) (Trypanosoma brucei brucei; P166A),pKa,[2],9.3
yTIM S211A variant (Saccharomyces cerevisiae; S211A),pKa,[3],8.2
"Triosephosphate isomerase, yeast (yTIM) (Saccharomyces cerevisiae)",pKa,[3],≈ 11
TbbTIM I170A variant (I172A in TbbTIM numbering) (Trypanosoma brucei brucei; I170A),pKa,[2],7.7
"Triosephosphate isomerase, Trypanosoma brucei brucei (TbbTIM) (Trypanosoma brucei brucei)",pKa,[2],≈ 11
"Glycerol 3-phosphate dehydrogenase [NAD+], human liver (hlGPDH) (Homo sapiens)",pKa,[4],4.4
same,pKa,[5],7.6
